From patent US10266842B2 (priority 2013, dated 2019)

B1: LserFCP1-77: 77-residue polypeptide of SEQ ID No. 1 (Lucilia sericata), prepared by solid-phase synthesis or recombinantly in E. coli (protein, listed as Lucilia sericata)
chain: QHGYGAGGHGQQGYGSQHSSHAPQGGHVVREQGFSGHVHEQQAGHHHEAGHHEQAGHHEQSGQQVHGQGHGYKSHGY
B2: LserFCP1-73: 73-residue polypeptide of SEQ ID No. 2; LserFCP1-77 lacking the last four residues, made recombinantly in E. coli (protein, listed as Lucilia sericata)
chain: QHGYGAGGHGQQGYGSQHSSHAPQGGHVVREQGFSGHVHEQQAGHHHEAGHHEQAGHHEQSGQQVHGQGHGYK

System: Fusarium graminearum (Strain IFA 65)
Format: cell-based

| Molecule | IC50 (Fusarium graminearum spores, 24 h at room temperature, from dose-effect relationship (FIG. 8), read-out: concentration in which a half-maximum inhibition (of spore germination) occurred) [µM] | inhibition of spore germination (100 μM, compared to a water control (FIG. 9)) |
| --- | --- | --- |
| B1 | 1.6 |  |
| B2 |  | complete inhibition |
